B1: SPSB1 (parent)
chain: DMRDPTYRPLKQELQGLDYCKPTR

Variants of: B1
Experiment: protein stability index of a GFP-peptide fusion (GPS, HEK-293T) (PSI 1-6); higher = more stable
Conditions: c terminus: a fixed tail appended
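Further: lentivirally expressed fusions sorted by FACS into six bins by GFP to DsRed ratio, PSI derived from sequencing read proportions per bin multiplied by bin number.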

Protein stability index: each site, then its substitutions
D4: A 3.54 | C 2.96 | E 3.24 | F 3.47 | G 2.97 | H 2.7 | I 3.13 | K 3.13 | L 2.77 | M 2.73 | N 2.74 | P 2.72 | Q 3.6 | R 3.53 | S 2.61 | T 2.8 | V 2.81 | Y 2.83
P5: A 3.28 | C 3.21 | D 3.1 | E 3.65 | F 3 | G 3.19 | H 3.88 | I 2.63 | K 3.28 | L 3.53 | M 3.57 | N 2.93 | Q 3.55 | R 2.71 | S 3.61 | T 3.17 | V 3.01 | W 2.76 | Y 2.93
T6: A 3.33 | C 2.91 | D 2.72 | E 3.51 | F 3.24 | G 3.93 | H 2.9 | I 3.63 | K 3.47 | L 2.71 | M 2.92 | N 3.13 | P 3.57 | Q 3.55 | R 3.62 | S 3.59 | V 3.31 | W 4.09 | Y 2.98
Y7: A 2.08 | C 3.14 | D 3.61 | E 3.86 | F 2.98 | G 2.64 | H 2.79 | I 2.54 | K 3.31 | L 3.25 | M 2.64 | N 3.34 | Q 4.24 | R 2.51 | S 2.93 | T 3.68 | V 3.5 | W 3.1
R8: A 3.8 | C 2.79 | D 3.95 | E 3.55 | F 2.6 | G 3.43 | I 3.31 | K 3.1 | L 3.23 | M 3.5 | N 3.46 | P 3.17 | Q 3.83 | S 2.68 | T 3.08 | V 3.27 | W 2.99 | Y 3.13
P9: A 2.69 | C 2.52 | D 3.28 | E 3.67 | F 3.26 | G 3.51 | H 2.35 | I 3.32 | K 2.94 | L 2.58 | M 2.6 | N 3.35 | Q 2.72 | R 2.25 | S 3.35 | T 2.64 | V 3.19 | W 2.99 | Y 2.67
L10: A 3.54 | C 2.6 | D 3.76 | E 4.03 | F 3.56 | G 3.49 | H 3.11 | I 3.67 | K 3.22 | M 3.25 | N 3.16 | P 3.37 | Q 3.68 | R 2.93 | S 3.56 | T 3.74 | V 3.14 | W 3.24 | Y 2.81
K11: A 3.68 | C 2.48 | D 3.85 | E 4.03 | F 3.24 | G 3.17 | H 3.32 | I 2.88 | L 3.24 | M 3.71 | N 4.04 | P 3.3 | Q 3.62 | R 3.54 | S 3.76 | T 3.17 | V 3.45 | W 2.5 | Y 4.04
Q12: A 3.12 | C 2.74 | D 3.45 | E 2.87 | F 2.67 | G 2.48 | H 3.46 | I 2.35 | K 2.94 | L 3.84 | M 2.23 | N 3.17 | P 3.04 | R 3.18 | S 3.25 | T 3.43 | V 2.59 | W 2.35 | Y 3.12
E13: A 3.09 | C 2.91 | D 3.68 | F 2.58 | G 3.59 | H 3.07 | I 2.62 | K 2.83 | L 2.42 | M 2.48 | N 3.03 | P 3.68 | Q 2.98 | R 2.98 | S 3.4 | T 3.18 | V 3.1 | W 2.44 | Y 2.41
L14: A 4.04 | C 3.71 | D 3.83 | E 2.43 | F 3.43 | G 4.04 | H 4.03 | I 3.35 | K 4.5 | M 3.68 | N 3.95 | P 3.89 | Q 4.29 | R 3.42 | S 4.24 | T 4.28 | V 4.05 | W 2.96 | Y 3.49
Q15: A 3.32 | C 2.57 | D 2.6 | E 3.87 | F 2.6 | G 2.25 | H 2.7 | I 3.05 | K 3.59 | L 2.81 | M 3.33 | N 3.52 | P 2.67 | R 3.54 | S 3.59 | T 3.55 | V 2.73 | W 2.53 | Y 3.4
G16: A 3.73 | C 3.17 | D 3.34 | E 2.93 | F 2.24 | H 3.1 | I 2.17 | K 3.34 | L 3.45 | M 3.35 | N 3.24 | P 3.06 | Q 3.94 | R 3.78 | S 3.32 | T 3.36 | V 2.71 | W 3.12
L17: A 3.82 | C 3.85 | D 4.65 | E 4.37 | F 3.08 | G 3.51 | H 4.39 | I 4.02 | K 3.96 | M 4.12 | N 4.33 | P 3.96 | Q 4.51 | R 3.8 | S 4.18 | T 4.29 | V 4 | W 4.02 | Y 3.7
D18: A 3.81 | C 3.08 | E 2.76 | F 2.67 | G 3.81 | H 3.73 | I 2.89 | K 3.53 | L 2.95 | M 2.94 | N 2.28 | P 3.63 | Q 3.83 | R 3.97 | S 3.48 | T 3.66 | V 3.58 | W 2.1 | Y 2.99
Y19: A 4.53 | C 3.91 | D 4.37 | E 5.15 | F 3.18 | G 4.73 | H 4.18 | I 3.78 | K 3.99 | L 4.37 | M 4 | N 4.92 | P 4.56 | Q 4.48 | R 4.4 | S 4.35 | T 4.32 | V 4.5 | W 3.04
C20: A 3.34 | D 4.05 | E 4.41 | F 3.31 | G 4.3 | H 2.93 | I 2.77 | K 4.6 | L 2.98 | N 4.05 | P 3.94 | Q 2.8 | R 4.42 | S 4.11 | T 3.71 | V 1.78 | W 2.15 | Y 3.58
K21: A 2.9 | C 2.44 | D 1.74 | E 2.76 | F 1.6 | G 3.66 | H 2.46 | I 1.87 | L 3.38 | M 2.39 | N 1.78 | P 3.95 | Q 2.64 | R 3.5 | S 2.92 | T 2.63

— the supplement of paper PMC10567573
